Reference: the supplement of paper PMC7125110
± gives the standard error. For some of these results: This sample holds only a part of the variants without activity.

B1: glmS ribozyme (parent)
chain: AUAAAAGCGCCAGAACUACAGAAAUGUAGUUGACGAGGAGGAGGUUUAUCGAAUUUUCGGCGGAUGCCUCCAAA

How the values were obtained:
Details in all cases: with glucosamine-6-phosphate
glucosamine-6-phosphate [1] = variants of: B1; experiment: kcat; higher = faster cleavage; RNA array
Method in brief: (§1)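 Glucosamine-6-phosphate, from 40 μM to 10 mM in HEPES/KCl/Mg(OAc)2 buffer, was flowed over sequenced MiSeq chips carrying barcoded ribozyme variants transcribed in situ by E. coli RNA polymerase. A hybridised Cy3 probe tracked the variants at 37 °C as tiles were imaged over ~14 h. kobs, kcat and KM were obtained by fitting normalised per-tile medians to exponential decays and then applying weighted Michaelis–Menten fits across concentrations.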

glucosamine-6-phosphate [2] = variants of: B1; experiment: self-cleavage kobs at 640 uM GlcN6P; higher = faster cleavage; RNA array
Method in brief: as §1

glucosamine-6-phosphate [3] = variants of: B1; experiment: self-cleavage kobs at 2500 uM GlcN6P; higher = faster cleavage; RNA array
Method in brief: as §1

glucosamine-6-phosphate [4] = variants of: B1; experiment: self-cleavage kobs at 40 uM GlcN6P; higher = faster cleavage; RNA array
Method in brief: as §1

glucosamine-6-phosphate [5] = variants of: B1; experiment: self-cleavage kobs at 10000 uM GlcN6P; higher = faster cleavage; RNA array
Method in brief: as §1

glucosamine-6-phosphate [6] = variants of: B1; experiment: KM; higher = weaker cofactor use; RNA array
Method in brief: as §1

glucosamine-6-phosphate [7] = variants of: B1; experiment: self-cleavage kobs at 160 uM GlcN6P; higher = faster cleavage; RNA array
Method in brief: as §1

G66U U69G
kcat (glucosamine-6-phosphate [1]): 3.26e-05 ± 1.2e-05 s⁻¹
self-cleavage kobs at 640 uM GlcN6P (glucosamine-6-phosphate [2]): 5.52e-05 ± 2.5e-05 s⁻¹
self-cleavage kobs at 2500 uM GlcN6P (glucosamine-6-phosphate [3]): 4.9e-05 ± 2.2e-05 s⁻¹

G60A C70G
kcat (glucosamine-6-phosphate [1]): 1.99e-05 ± 7.1e-06 s⁻¹

G60A C70U
kcat (glucosamine-6-phosphate [1]): 3.47e-05 ± 4e-06 s⁻¹
self-cleavage kobs at 40 uM GlcN6P (glucosamine-6-phosphate [4]): < 1e-05 s⁻¹
self-cleavage kobs at 2500 uM GlcN6P (glucosamine-6-phosphate [3]): 1.93e-05 ± 9.2e-06 s⁻¹
self-cleavage kobs at 10000 uM GlcN6P (glucosamine-6-phosphate [5]): 3.02e-05 ± 6.5e-06 s⁻¹

U65G
kcat (glucosamine-6-phosphate [1]): 0.00543 ± 0.0002 s⁻¹
KM (glucosamine-6-phosphate [6]): 3670 ± 190 µM
self-cleavage kobs at 40 uM GlcN6P (glucosamine-6-phosphate [4]): 5.85e-05 ± 1.3e-06 s⁻¹
self-cleavage kobs at 160 uM GlcN6P (glucosamine-6-phosphate [7]): 0.000217 ± 7.2e-06 s⁻¹
self-cleavage kobs at 640 uM GlcN6P (glucosamine-6-phosphate [2]): 0.000813 ± 1.9e-05 s⁻¹
self-cleavage kobs at 2500 uM GlcN6P (glucosamine-6-phosphate [3]): 0.00237 ± 8.3e-05 s⁻¹
self-cleavage kobs at 10000 uM GlcN6P (glucosamine-6-phosphate [5]): 0.00393 ± 7.2e-05 s⁻¹

U65A
kcat (glucosamine-6-phosphate [1]): 0.0061 ± 0.001 s⁻¹
KM (glucosamine-6-phosphate [6]): 2260 ± 500 µM
self-cleavage kobs at 40 uM GlcN6P (glucosamine-6-phosphate [4]): 0.00012 ± 2.4e-06 s⁻¹
self-cleavage kobs at 160 uM GlcN6P (glucosamine-6-phosphate [7]): 0.000336 ± 1.5e-05 s⁻¹
self-cleavage kobs at 640 uM GlcN6P (glucosamine-6-phosphate [2]): 0.00117 ± 3.3e-05 s⁻¹
self-cleavage kobs at 2500 uM GlcN6P (glucosamine-6-phosphate [3]): 0.00375 ± 0.00015 s⁻¹
self-cleavage kobs at 10000 uM GlcN6P (glucosamine-6-phosphate [5]): 0.00502 ± 0.00012 s⁻¹

U65C
kcat (glucosamine-6-phosphate [1]): 0.000875 ± 9.1e-05 s⁻¹
KM (glucosamine-6-phosphate [6]): 1690 ± 310 µM
self-cleavage kobs at 40 uM GlcN6P (glucosamine-6-phosphate [4]): 2.21e-05 ± 2.1e-06 s⁻¹
self-cleavage kobs at 160 uM GlcN6P (glucosamine-6-phosphate [7]): 6.95e-05 ± 2.6e-06 s⁻¹
self-cleavage kobs at 640 uM GlcN6P (glucosamine-6-phosphate [2]): 0.000238 ± 5.5e-06 s⁻¹
self-cleavage kobs at 2500 uM GlcN6P (glucosamine-6-phosphate [3]): 0.000626 ± 1.6e-05 s⁻¹
self-cleavage kobs at 10000 uM GlcN6P (glucosamine-6-phosphate [5]): 0.000705 ± 1.6e-05 s⁻¹

A39C C50U
KM (glucosamine-6-phosphate [6]): 1080 ± 200 µM

G60A G63C
kcat (glucosamine-6-phosphate [1]): < 1e-05 s⁻¹
self-cleavage kobs at 160 uM GlcN6P (glucosamine-6-phosphate [7]): < 1e-05 s⁻¹
self-cleavage kobs at 2500 uM GlcN6P (glucosamine-6-phosphate [3]): < 1e-05 s⁻¹
self-cleavage kobs at 10000 uM GlcN6P (glucosamine-6-phosphate [5]): < 1e-05 s⁻¹

C61A C68G
kcat (glucosamine-6-phosphate [1]): 1.96e-05 ± 3.4e-06 s⁻¹

C61A C68U
kcat (glucosamine-6-phosphate [1]): 1.56e-05 ± 2e-06 s⁻¹

G66U C68U
kcat (glucosamine-6-phosphate [1]): 0.000348 ± 2.4e-05 s⁻¹
KM (glucosamine-6-phosphate [6]): 1260 ± 190 µM
self-cleavage kobs at 40 uM GlcN6P (glucosamine-6-phosphate [4]): 2.21e-05 ± 1e-05 s⁻¹
self-cleavage kobs at 160 uM GlcN6P (glucosamine-6-phosphate [7]): 3.82e-05 ± 1.3e-05 s⁻¹
self-cleavage kobs at 640 uM GlcN6P (glucosamine-6-phosphate [2]): 0.000116 ± 1.2e-05 s⁻¹
self-cleavage kobs at 2500 uM GlcN6P (glucosamine-6-phosphate [3]): 0.000226 ± 4e-05 s⁻¹
self-cleavage kobs at 10000 uM GlcN6P (glucosamine-6-phosphate [5]): 0.000311 ± 2.9e-05 s⁻¹

G66U C68G
kcat (glucosamine-6-phosphate [1]): 4.91e-05 ± 1.9e-05 s⁻¹
self-cleavage kobs at 160 uM GlcN6P (glucosamine-6-phosphate [7]): 3.35e-05 ± 1.3e-05 s⁻¹
self-cleavage kobs at 640 uM GlcN6P (glucosamine-6-phosphate [2]): 8.19e-05 ± 1.4e-05 s⁻¹
self-cleavage kobs at 2500 uM GlcN6P (glucosamine-6-phosphate [3]): 6.89e-05 ± 1.1e-05 s⁻¹

C61G C67G
kcat (glucosamine-6-phosphate [1]): 1.22e-05 ± 1.5e-06 s⁻¹

U57G C58G
kcat (glucosamine-6-phosphate [1]): 3.94e-05 ± 1.6e-05 s⁻¹
self-cleavage kobs at 640 uM GlcN6P (glucosamine-6-phosphate [2]): 7.15e-05 ± 2.3e-05 s⁻¹
self-cleavage kobs at 2500 uM GlcN6P (glucosamine-6-phosphate [3]): 5.55e-05 ± 2e-05 s⁻¹

C58A C70U
kcat (glucosamine-6-phosphate [1]): 0.000164 ± 2.2e-05 s⁻¹
KM (glucosamine-6-phosphate [6]): 718 ± 270 µM
self-cleavage kobs at 160 uM GlcN6P (glucosamine-6-phosphate [7]): 3.94e-05 ± 9.4e-06 s⁻¹
self-cleavage kobs at 640 uM GlcN6P (glucosamine-6-phosphate [2]): 6.79e-05 ± 8.4e-06 s⁻¹
self-cleavage kobs at 2500 uM GlcN6P (glucosamine-6-phosphate [3]): 0.000143 ± 1.3e-05 s⁻¹
self-cleavage kobs at 10000 uM GlcN6P (glucosamine-6-phosphate [5]): 0.000145 ± 1.7e-05 s⁻¹

C67U U69G
kcat (glucosamine-6-phosphate [1]): 3.43e-05 ± 1.5e-05 s⁻¹
self-cleavage kobs at 160 uM GlcN6P (glucosamine-6-phosphate [7]): 4.85e-05 ± 1.1e-05 s⁻¹
self-cleavage kobs at 2500 uM GlcN6P (glucosamine-6-phosphate [3]): 4.75e-05 ± 1.2e-05 s⁻¹

C67U U69C
kcat (glucosamine-6-phosphate [1]): 0.000129 ± 6e-05 s⁻¹
self-cleavage kobs at 160 uM GlcN6P (glucosamine-6-phosphate [7]): 4.3e-05 ± 2.1e-05 s⁻¹
self-cleavage kobs at 640 uM GlcN6P (glucosamine-6-phosphate [2]): 0.000113 ± 2e-05 s⁻¹
self-cleavage kobs at 2500 uM GlcN6P (glucosamine-6-phosphate [3]): 4.99e-05 ± 2.3e-05 s⁻¹
self-cleavage kobs at 10000 uM GlcN6P (glucosamine-6-phosphate [5]): 0.000226 ± 3.7e-05 s⁻¹

U65G C70A
kcat (glucosamine-6-phosphate [1]): 0.000185 ± 1.6e-05 s⁻¹
KM (glucosamine-6-phosphate [6]): 825 ± 210 µM
self-cleavage kobs at 640 uM GlcN6P (glucosamine-6-phosphate [2]): 7.93e-05 ± 1.6e-05 s⁻¹
self-cleavage kobs at 2500 uM GlcN6P (glucosamine-6-phosphate [3]): 0.000183 ± 6.7e-05 s⁻¹
self-cleavage kobs at 10000 uM GlcN6P (glucosamine-6-phosphate [5]): 0.000167 ± 2.7e-05 s⁻¹
